Laboratory results reported in patent publication US20220387487A1, “COMPOSITIONS AND METHODS FOR TREATMENT OF CANCER” (Aleta Biotherapeutics Inc., priority 2019, published 2022).
Substitutions are numbered along the chain they refer to. In names and notes the source's numbering stands.

T1: CLEC12A (Homo sapiens, UniProt Q5QGZ9, K244Q)
T1 sequence (Q5QGZ9 65-265 K244Q): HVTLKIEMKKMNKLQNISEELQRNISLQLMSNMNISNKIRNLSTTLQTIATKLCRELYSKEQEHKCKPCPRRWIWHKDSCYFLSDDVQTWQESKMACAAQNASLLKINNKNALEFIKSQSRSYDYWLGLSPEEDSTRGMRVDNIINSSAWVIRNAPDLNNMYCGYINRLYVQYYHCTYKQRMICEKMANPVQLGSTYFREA

B1: #410: fusion protein containing the CD19 ECD and anti-CD33 scFv; SEQ ID NO:325 (protein)
chain: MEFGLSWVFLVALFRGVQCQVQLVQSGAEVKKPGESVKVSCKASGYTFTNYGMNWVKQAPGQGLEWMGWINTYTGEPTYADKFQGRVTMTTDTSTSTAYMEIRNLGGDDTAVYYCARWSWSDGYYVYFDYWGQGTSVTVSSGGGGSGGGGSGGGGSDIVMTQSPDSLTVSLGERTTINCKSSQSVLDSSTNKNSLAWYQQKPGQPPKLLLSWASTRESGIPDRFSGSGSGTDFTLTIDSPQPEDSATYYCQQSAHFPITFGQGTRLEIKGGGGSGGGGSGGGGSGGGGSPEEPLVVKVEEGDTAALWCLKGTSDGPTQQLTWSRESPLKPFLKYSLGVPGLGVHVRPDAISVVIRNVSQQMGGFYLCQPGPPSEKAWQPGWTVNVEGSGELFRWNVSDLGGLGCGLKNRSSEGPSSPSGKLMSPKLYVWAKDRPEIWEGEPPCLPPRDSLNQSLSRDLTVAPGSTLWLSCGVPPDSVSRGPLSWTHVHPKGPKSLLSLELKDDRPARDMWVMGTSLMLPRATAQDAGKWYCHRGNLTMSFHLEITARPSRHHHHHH
B2: E224G/G226V/L228V: CD19 variant (protein)
chain: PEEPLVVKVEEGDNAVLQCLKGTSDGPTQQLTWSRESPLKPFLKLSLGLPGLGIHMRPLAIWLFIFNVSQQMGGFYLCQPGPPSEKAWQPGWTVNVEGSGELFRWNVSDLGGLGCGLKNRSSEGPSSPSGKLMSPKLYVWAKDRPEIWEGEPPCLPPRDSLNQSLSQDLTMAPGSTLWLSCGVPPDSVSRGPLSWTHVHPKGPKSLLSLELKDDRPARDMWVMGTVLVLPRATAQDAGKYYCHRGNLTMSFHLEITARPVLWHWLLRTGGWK
B3: W62S/F64V/F66R: CD19 variant (protein)
chain: B2 chain with W62S, F64V, F66R, G224E, V226G, V228L
B4: W62S/F64R/F66R: CD19 variant (protein)
chain: B2 chain with W62S, F64R, F66R, G224E, V226G, V228L
B5: W62G/F64V/F66R: CD19 variant (protein)
chain: B2 chain with W62G, F64V, F66R, G224E, V226G, V228L
B6: W62H/F64F/F66R: CD19 variant (protein)
chain: B2 chain with W62H, F66R, G224E, V226G, V228L
B7: W62D/F64V/F66S: CD19 variant (protein)
chain: B2 chain with W62D, F64V, F66S, G224E, V226G, V228L
B8: E224G/G226R/L228I: CD19 variant (protein)
chain: B2 chain with V226R, V228I
B9: W62N/F64L/F66P: CD19 variant (protein)
chain: B2 chain with W62N, F64L, F66P, G224E, V226G, V228L
B10: W62D/F64A/F66S: CD19 variant (protein)
chain: B2 chain with W62D, F64A, F66S, G224E, V226G, V228L
B11: W62S/F64V/F66S: CD19 variant (protein)
chain: B2 chain with W62S, F64V, F66S, G224E, V226G, V228L
B12: W62T/F64V/F66R: CD19 variant (protein)
chain: B2 chain with W62T, F64V, F66R, G224E, V226G, V228L
B13: E224G/G226R/L228V: CD19 variant (protein)
chain: B2 chain with V226R
B14: W62T/F64A/F66S: CD19 variant (protein)
chain: B2 chain with W62T, F64A, F66S, G224E, V226G, V228L
B15: E224G/G226A/L228V: CD19 variant (protein)
chain: B2 chain with V226A
B16: W62T/F64M/F66S: CD19 variant (protein)
chain: B2 chain with W62T, F64M, F66S, G224E, V226G, V228L
B17: W62W/F64T/F66A: CD19 variant (protein)
chain: B2 chain with F64T, F66A, G224E, V226G, V228L
B18: E224G/G226S/L228V: CD19 variant (protein)
chain: B2 chain with V226S
B19: E224G/G226G/L228I: CD19 variant (protein)
chain: B2 chain with V226G, V228I
B20: W62G/F64V/F66K: CD19 variant (protein)
chain: B2 chain with W62G, F64V, F66K, G224E, V226G, V228L
B21: W62H/F64V/F66S: CD19 variant (protein)
chain: B2 chain with W62H, F64V, F66S, G224E, V226G, V228L
B22: W62S/F64F/F66N: CD19 variant (protein)
chain: B2 chain with W62S, F66N, G224E, V226G, V228L
B23: L59N/I61I/L63I: CD19 variant (protein)
chain: B2 chain with L59N, L63I, G224E, V226G, V228L
B24: #321: purified fusion protein of CD19 variant and anti-CLL-1 VHH; SEQ ID NO:303 (protein)
chain: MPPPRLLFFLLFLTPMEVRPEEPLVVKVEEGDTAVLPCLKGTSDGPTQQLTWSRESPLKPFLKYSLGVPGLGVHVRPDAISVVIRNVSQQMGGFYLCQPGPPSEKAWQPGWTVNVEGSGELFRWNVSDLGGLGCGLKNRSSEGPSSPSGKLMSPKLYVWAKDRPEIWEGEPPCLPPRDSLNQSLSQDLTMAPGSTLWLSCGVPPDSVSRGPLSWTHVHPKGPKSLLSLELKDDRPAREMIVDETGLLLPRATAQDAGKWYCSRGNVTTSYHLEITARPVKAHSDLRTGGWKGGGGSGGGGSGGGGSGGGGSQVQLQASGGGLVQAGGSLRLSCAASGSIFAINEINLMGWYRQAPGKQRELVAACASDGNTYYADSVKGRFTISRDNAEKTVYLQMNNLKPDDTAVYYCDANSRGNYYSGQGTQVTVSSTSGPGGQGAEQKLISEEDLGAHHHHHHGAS

target: T1, CLEC12A; assay: ELISA of fusion proteins, FMC63 coat, biotinylated CLEC12A detection; format: binding; conditions: not given

B1 was tested, and the “CLEC12A binding EC50 pM” value was “∞”.

B1 was tested, and the “CLEC12A binding EC50 ng/ml” value was “∞”.

system: FMC63; assay: CD19 variant binding to anti-CD19 antibody FMC63 (score); conditions: Table 1B, CD19 triple mutants

B2 and B3 are within error of each other in “FMC63 Binding Score” value: 11.2 ± 1 for the first, 11.8 ± 1.7 for the second.

B4 and B5 are within error of each other in “FMC63 Binding Score” value: 13.7 ± 1.9 for the first, 14.1 ± 1.9 for the second.

B6 and B7 are within error of each other in “FMC63 Binding Score” value: 12.4 ± 2.3 for the first, 13.3 ± 3.2 for the second.

B8 and B9 are within error of each other in “FMC63 Binding Score” value: 12. ± 2 for the first, 15.6 ± 5.6 for the second.

B10 and B11 are within error of each other in “FMC63 Binding Score” value: 15.5 ± 5.6 for the first, 15.4 ± 2.8 for the second.

B12 and B14 are within error of each other in “FMC63 Binding Score” value: 12.2 ± 2.1 for the first, 15.7 ± 5.6 for the second.

B16 and B17 are within error of each other in “FMC63 Binding Score” value: 15.7 ± 5.6 for the first, 13.9 ± 4 for the second.

B18 and B19 are the same in “FMC63 Binding Score” value: 11.2 ± 1.1 for the first, 11.2 ± 1.2 for the second.

B20 and B21 are within error of each other in “FMC63 Binding Score” value: 12.3 ± 2.3 for the first, 14. ± 4 for the second.

B22 and B23 are the same in “FMC63 Binding Score” value: 15.6 ± 5.6 for the first, 15.6 ± 5.6 for the second.

For B13, the “FMC63 Binding Score” value was 11. ± .9.
In the case of B15, the “FMC63 Binding Score” value is reported as 10.8 ± .8.

target: CD33 (Homo sapiens, UniProt P20138); assay: ELISA of fusion proteins, FMC63 coat, biotinylated CD33 detection; format: binding; conditions: ELISA, FMC63 coat, biotinylated CD33
Description: ELISAs for binding to CD19, CLEC12A and CD33 were run using purified fusion proteins #330, #410 and #440. A 96 well plate was coated with 1.0 μg/ml FMC63 (Novus) in 0.1 M carbonate, pH 9.5 overnight at 4° C. The plate was blocked with 0.3% non-fat milk in TBS for 1 hour at room temperature. After washing in TBST (0.1 M Tris, 0.5 M NaCl, 0.05% Tween20) 3 times, the fusion protein supernatant was titrated using 3-fold dilutions in 1% BSA in TBS and incubated 1 hour at room temperature. For detection by anti-His, after washing 3 times in TBST, HRP-anti-His (BioLegend) was added at 1:2000. The plate was incubated at room temperature in the dark for 1 hour. For detection of binding to CLEC12A, biotinylated CLEC12A was added at 0.5 μg/ml and incubated for 1 hour. This was followed by adding HRP-SA (Pierce) at 1:2000 and incubated at room temperature in the dark for 1 hour. For testing binding to CD33, biotinylated CD33 was added at 0.5 μg/ml and incubated for 1 hour. This was followed by adding HRP-SA (Pierce) at 1:2000 and incubated at room temperature in the dark for 1 hour. Then, 1-Step Ultra TMB-ELISA (Thermo Fisher) solution, was added and the plate read at […]. Curves were fit using a four-parameter logistic (4 PL) regression to calculate the EC50.

B1 was tested, and the “CD33 binding EC50” value was 3.0 ng/mL.

target: CLEC12A; assay: ELISA binding of fusion proteins (FMC63 coat, HRP-anti-His detection); parameters: species or system human; conditions: purified fusion protein, FMC63 coat; read-out: CLEC12A binding (ELISA EC50)
Description: The binding of the biparatopic fusion proteins to CLEC12A was also examined by ELISA. […] The plate was left to incubate overnight at 4° C. The coated plate was blocked with TBS/0.3% nonfat dry milk (NFD) for 60 minutes at RT.

B24 was tested, and the EC50 was 0.09 nM.

system: Molm14 cells; assay: CAR-CD19 T cell cytotoxicity bridged by purified fusion protein, luciferase Molm14 cells; format: cell-based; conditions: FIG. 21A
Description: To test cytoxicity, luciferase labeled Molm14 or U937 cells were targeted for cytotoxic killing using a CAR19 T cell preparation and the purified proteins #330, #410 and #440 added in a dose titration. 1×10^4 target cells were added to each well (96 clear round bottom plate) in RPMI medium. The protein titration was started at 180 ng/ml with 3-fold serial titration into corresponding wells (25 μl per well). CAR-CD19 T cells were added at various E:T ratios to the target cells. After 48 hours the plate was centrifuged (450 RCF for 5 minutes) and the cells were washed 1× with PBS then centrifuged a second time. 20 μl lysis buffer was added into each well. The cell lysate was transferred to a 96 opaque white plate. The plates were read in a luminometer with an injector (Glomax Multi Detection System, Promega). The percent killing was calculated based upon the average loss of luminescence of the experimental vs the control (target cell only or target cell plus fusion protein only).

For B1, the “cytotoxicity on Molm14 cells” value was “about equipotent”.
